Results reported in IntAct's records for PubMed 19430481.

Biological target: rpgr_mouse Rpgr (UniProt Q9R0X5)
Sequence (Q9R0X5 whole entry): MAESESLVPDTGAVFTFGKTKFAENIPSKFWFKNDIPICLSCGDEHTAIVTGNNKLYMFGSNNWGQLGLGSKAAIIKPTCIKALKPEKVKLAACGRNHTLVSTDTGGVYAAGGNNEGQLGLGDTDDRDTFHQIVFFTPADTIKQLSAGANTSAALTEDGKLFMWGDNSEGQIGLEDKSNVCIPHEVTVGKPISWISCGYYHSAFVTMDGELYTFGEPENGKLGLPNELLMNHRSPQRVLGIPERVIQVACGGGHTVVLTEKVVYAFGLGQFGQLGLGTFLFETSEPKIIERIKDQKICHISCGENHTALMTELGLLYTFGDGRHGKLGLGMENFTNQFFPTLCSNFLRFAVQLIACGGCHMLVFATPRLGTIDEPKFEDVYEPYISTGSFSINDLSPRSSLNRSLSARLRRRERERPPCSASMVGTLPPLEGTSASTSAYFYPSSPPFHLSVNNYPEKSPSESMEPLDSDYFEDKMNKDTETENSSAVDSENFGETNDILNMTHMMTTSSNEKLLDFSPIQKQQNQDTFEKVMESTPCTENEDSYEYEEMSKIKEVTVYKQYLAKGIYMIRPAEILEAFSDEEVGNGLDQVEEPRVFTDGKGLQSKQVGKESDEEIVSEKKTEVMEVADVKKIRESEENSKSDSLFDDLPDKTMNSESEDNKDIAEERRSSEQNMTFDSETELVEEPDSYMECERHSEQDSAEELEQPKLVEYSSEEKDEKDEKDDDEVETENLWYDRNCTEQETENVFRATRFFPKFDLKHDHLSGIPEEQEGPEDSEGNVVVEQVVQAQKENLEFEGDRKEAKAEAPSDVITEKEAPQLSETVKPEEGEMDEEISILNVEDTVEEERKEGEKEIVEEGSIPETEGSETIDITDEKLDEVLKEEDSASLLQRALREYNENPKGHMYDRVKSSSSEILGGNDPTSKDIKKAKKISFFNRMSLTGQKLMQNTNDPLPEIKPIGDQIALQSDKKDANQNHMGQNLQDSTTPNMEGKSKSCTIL

Chain of Protein fantom (Homo sapiens), Q68CZ1 A229T (Q68CZ1 whole entry A229T): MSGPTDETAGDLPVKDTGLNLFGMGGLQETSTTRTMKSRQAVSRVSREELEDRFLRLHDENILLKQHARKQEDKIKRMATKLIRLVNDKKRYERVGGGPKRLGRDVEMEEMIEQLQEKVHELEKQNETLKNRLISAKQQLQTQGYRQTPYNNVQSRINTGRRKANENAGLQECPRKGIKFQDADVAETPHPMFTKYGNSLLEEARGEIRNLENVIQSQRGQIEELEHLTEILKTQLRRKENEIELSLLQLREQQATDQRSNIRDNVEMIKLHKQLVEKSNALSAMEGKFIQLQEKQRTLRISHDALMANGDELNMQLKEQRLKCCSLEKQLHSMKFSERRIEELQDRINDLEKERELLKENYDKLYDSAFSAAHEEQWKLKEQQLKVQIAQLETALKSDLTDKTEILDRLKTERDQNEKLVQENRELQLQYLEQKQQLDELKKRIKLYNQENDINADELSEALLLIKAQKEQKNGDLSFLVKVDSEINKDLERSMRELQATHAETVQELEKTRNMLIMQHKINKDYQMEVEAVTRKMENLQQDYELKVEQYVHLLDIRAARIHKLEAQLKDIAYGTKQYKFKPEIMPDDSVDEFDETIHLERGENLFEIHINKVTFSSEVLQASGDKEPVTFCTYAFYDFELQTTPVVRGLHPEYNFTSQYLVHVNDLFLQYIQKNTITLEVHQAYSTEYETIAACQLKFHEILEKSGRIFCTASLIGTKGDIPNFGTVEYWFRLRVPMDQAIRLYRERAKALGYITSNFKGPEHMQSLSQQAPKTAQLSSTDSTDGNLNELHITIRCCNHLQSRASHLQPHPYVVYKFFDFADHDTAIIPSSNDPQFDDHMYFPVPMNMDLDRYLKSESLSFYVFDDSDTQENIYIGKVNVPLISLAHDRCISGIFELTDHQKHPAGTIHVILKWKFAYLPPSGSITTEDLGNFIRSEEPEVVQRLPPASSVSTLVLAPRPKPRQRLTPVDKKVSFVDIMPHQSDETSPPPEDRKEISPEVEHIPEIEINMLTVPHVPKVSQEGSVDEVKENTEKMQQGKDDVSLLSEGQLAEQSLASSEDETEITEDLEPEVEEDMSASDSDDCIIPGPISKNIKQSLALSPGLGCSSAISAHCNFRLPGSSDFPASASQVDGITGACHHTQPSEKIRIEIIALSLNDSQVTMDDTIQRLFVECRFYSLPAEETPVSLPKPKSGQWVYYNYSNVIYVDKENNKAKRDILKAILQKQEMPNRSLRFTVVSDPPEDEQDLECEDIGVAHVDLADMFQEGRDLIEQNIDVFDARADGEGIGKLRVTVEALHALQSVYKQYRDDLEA

Row | Substance | effect of a mutation on the interaction
1 | Protein fantom (Homo sapiens), Q68CZ1 A229T | decreasing interaction strength
2 | Protein fantom (Homo sapiens), Q68CZ1 A695P | decreasing interaction strength
3 | Protein fantom (Homo sapiens), Q68CZ1 T615P | decreasing interaction strength
4 | Protein fantom (Homo sapiens), Q68CZ1 T677I | with no effect
